The chains are these.
B1: OR4K15 (parent)
chain: GUUAACGGUCAUAGGCCAUGGAAACUAGGAGCACCAUUUCGCUGCCAGUGAAGAAAUGAACAAAGAAAAUCUGGGCCAGGCAGGCAUCAAAAGAAAUAGUCUUGCGCUCAACCAGAAAGUCUGUAAUCAUUUUAAGGGUA

The source of these data is the RNAGym collection of RNA variant scans (doi:10.7554/elife.90254).

In this data set the parent is B1. In words: self-cleavage, relative activity (ratio to wild type); higher = more cleavage; in vitro, sequencing; the parent is a self-cleaving ribozyme.
Turning to G75C A129G, the self-cleavage is 0.07.

With U127A U130A, the self-cleavage was determined as 1.95. Take A63G A111G: the self-cleavage came out at 0.02. For A5G A52G, the self-cleavage is 1.07. On to A24G A56G, for which the self-cleavage came to 1.25.

As for G50A A52G, the self-cleavage was determined as 2.63.

As to A36G U127C, the self-cleavage came to 1.34. For U43A A60G, the self-cleavage came out at 1.52. The result for C46A A91G reads 0.95; that for U127A U131C, 2.45; that for A33U U72C, 0.3. The figure for A60U A86U is 1.67; for A5G A110G it is 0.15.

Turning to A63U A86C, the self-cleavage is 1.78. The figure for U49G A114G is 0.06; for A64G U100C it is 1.22; for C107G it is 0.02. The figure for A89G A96U is 1.27; for A13U A52U it is 1.26. The result for A5G U87C reads 0.88; that for A27C A116U, 0.23. For the variant A78G G80A, the self-cleavage came out at 0.13.

On to A5G A63G, for which the self-cleavage worked out at 1.21. The result for U57C U122C reads 0.84; that for U103C A135G, 0.95. The figure for A96G G106A is 0.01; for A24C A91G it is 1.24; for A89G A94G it is 1.39.

Take A66G A67G: the self-cleavage was found to be 1.22. The figure for U108A U130C is 0.01. In the case of A47C U70C, the self-cleavage is 0.23.

Turning to A89G, the self-cleavage was found to be 1.11. On to A18U A55U, for which the self-cleavage was found to be 1.49. Turning to A126U U132C, the self-cleavage stood at 1.21. The figure for A18G A54U is 1.25; for U57C A111G it is 0.01. The figure for A23G C113U is 0.05; for U70C G75A it is 0.21. On to G106A U132C, for which the self-cleavage worked out at 0.01. The result for A22G U39C reads 1.67; that for U72G C101A, 0.1.

In the case of A11G C107G, the self-cleavage stood at 0.05. The result for A78U U100A reads 0.07; that for A30U U70A, 1.71. The figure for U19G A110G is 0.2; for U43C A116U it is 0.46. With A69G U100C, the self-cleavage came to 2.43. The figure for A55U A98U is 2.38; for U130G A135G it is 1.08. For the variant A56G A92U, the self-cleavage was determined as 2.54. The result for A59G A118G reads 0.75; that for U26C A86G, 1.33; that for U43C G93A, 2.44. The result for U39C A60U reads 1.88; that for A110G A125C, 0.17. The figure for A5U G15A is 1.04. Take A89U U103A: the self-cleavage worked out at 1.09.

Regarding A33U U39A, the self-cleavage came to 1.4.

With A27G U39A, the self-cleavage worked out at 1.42. The figure for C46U U122A is 1.22.

Turning to A36U U57C, the self-cleavage was found to be 1.58.

For the variant A116G A118G, the self-cleavage stood at 0.22.

For G21A A116G, the self-cleavage was found to be 0.46. The figure for A36U G48A is 1.22; for A13U A62U it is 1.05; for A18G U108C it is 0.02. The figure for U12A A52G is 1.14; for A59C U100C it is 1.22; for U2C G83A it is 0.87.

G15A A111G: the self-cleavage was determined as 0.01. Consider U97A A118G, for which the self-cleavage was determined as 1.01. The result for U9G U57A reads 0.51; that for U26A G115U, 0.13; that for A23G A64U, 1.2.

For the variant C6G U132C, the self-cleavage was found to be 0.79. The figure for A54G A82G is 0.61.

Consider U49C C76U, for which the self-cleavage was determined as 0.07.

For A82G U120C, the self-cleavage is 0.11.

Turning to U37C U43G, the self-cleavage is 1.46. The result for U9C U139C reads 2.45; that for U39C G48A, 1.14. The result for U39A A68C reads 1.75; that for A13G U108A, 0.12; that for U9A A24C, 0.99. The figure for U57A U132A is 0.7; for A86U U87C it is 1.51; for A90U A129U it is 1.29.

With U72C A86C, the self-cleavage worked out at 0.28. In the case of A78U A134G, the self-cleavage stood at 0.31. U100C G136A: the self-cleavage turned out to be 2.45. The figure for U57A A63G is 1.7. The figure for U131C A140U is 1.59; for A66U A82G it is 0.92. The result for U3A U130C reads 1.09. With A64G A117G, the self-cleavage was found to be 1.7.

A64G A95G: the self-cleavage worked out at 1.12. The result for A22U U39C reads 0.34.

For A51G U97C, the self-cleavage was determined as 1.75.

Take C40U U57C: the self-cleavage came to 1.07. The figure for G41C A67U is 1.8. The figure for A82C C105U is 0.02; for U72A U108C it is 0.01; for G65U A86G it is 0.19.

U43G A51G: the self-cleavage was found to be 2.35. As for A68G A126G, the self-cleavage stood at 0.6. The result for U57G A64G reads 0.9; that for A62U A69G, 0.81; that for U49A A89G, 0.47. The figure for A5U A27G is 2.05. The figure for A90G U131C is 0.31; for U2C U43A it is 1. As for A54U A135U, the self-cleavage worked out at 2.01.

As for G84A A96G, the self-cleavage turned out to be 2.43. As for U37C, the self-cleavage was found to be 1.27.

Regarding A5G A47C, the self-cleavage was 1.22. The result for A5G U19A reads 0.53; that for A5G A54U, 0.83. The result for A51G A64G reads 1.42; that for A56G A66G, 0.93; that for A18U C105U, 0.28. The figure for U39C U127C is 1.18.

For the variant U43A A96G, the self-cleavage amounted to 2.07.

For U43C A118C, the self-cleavage is 1.4.

For the variant U72C G83A, the self-cleavage was determined as 0.08.

Consider A36G G106A, for which the self-cleavage came out at 0.02.

Turning to C16U, the self-cleavage is 1.25.

Regarding A33U A114G, the self-cleavage came to 0.64.

On to A47G U139A, for which the self-cleavage came to 1.4.

Regarding U2C A11G, the self-cleavage amounted to 1.16.

For the variant A24G U72A, the self-cleavage came to 0.28.

On to A13G U139A, for which the self-cleavage is 1.51.

For A96G U102C, the self-cleavage stood at 2.33.

For the variant U19A A59G, the self-cleavage is 1.12. Take A18G U57A: the self-cleavage is 1. The result for A11G U26C reads 1.27. For the variant A36G A68U, the self-cleavage came to 1.65.

For the variant A30U A52G, the self-cleavage came to 1.08. The figure for A52G A91G is 1.01. The result for U49A A111C reads 0.01. A82G A96G: the self-cleavage came out at 0.59. Turning to U2C A30C, the self-cleavage was 1.44.

Consider A90G A140U, for which the self-cleavage came to 0.74. The figure for A51G G83U is 0.7; for A64G A78U it is 0.4. The result for A24U U26C reads 2.46; that for A36U U100C, 2.44; that for A89U A91G, 1.78. The figure for A68G A96G is 1.04.

As for G28A U130C, the self-cleavage was determined as 1.2. As to U102G G106C, the self-cleavage worked out at 0.01. The figure for A95C is 1.06; for C17U U87C it is 0.7; for A24G U132C it is 1.31.

Regarding A78U A110C, the self-cleavage is 0.05. The figure for A5G A92U is 0.95; for A23U U49C it is 1.55; for A55G A96U it is 1.11. The result for A36C U132C reads 1.67; that for G7A A82U, 0.14. The result for C16A A134G reads 0.96; that for U103A A110U, 0.62.

Turning to C46A, the self-cleavage turned out to be 1.44.

As for G106A U139A, the self-cleavage turned out to be 0. The figure for C71U A126G is 0.32; for A89G U122C it is 1.03.

Consider U2A A51G, for which the self-cleavage came out at 0.51.

Turning to A60U G115A, the self-cleavage was found to be 0.29.
